Experimental data from US20040110684A1 (UNIVERSITE CATHOLIQUE DE LOUVAIN, published 2004).
Residue numbers refer to the chain shown, from its start.

T1: endothelial nitric oxide synthase (eNOS), endogenous, mouse cardiac microvascular endothelial cells (CMECs) (mouse, UniProt P70313 2-1202)
T1 construct: Endogenous protein in a cell lysate, detected by co-immunoprecipitation and immunoblot; also called endothelial NO synthase
T1 sequence (looked up): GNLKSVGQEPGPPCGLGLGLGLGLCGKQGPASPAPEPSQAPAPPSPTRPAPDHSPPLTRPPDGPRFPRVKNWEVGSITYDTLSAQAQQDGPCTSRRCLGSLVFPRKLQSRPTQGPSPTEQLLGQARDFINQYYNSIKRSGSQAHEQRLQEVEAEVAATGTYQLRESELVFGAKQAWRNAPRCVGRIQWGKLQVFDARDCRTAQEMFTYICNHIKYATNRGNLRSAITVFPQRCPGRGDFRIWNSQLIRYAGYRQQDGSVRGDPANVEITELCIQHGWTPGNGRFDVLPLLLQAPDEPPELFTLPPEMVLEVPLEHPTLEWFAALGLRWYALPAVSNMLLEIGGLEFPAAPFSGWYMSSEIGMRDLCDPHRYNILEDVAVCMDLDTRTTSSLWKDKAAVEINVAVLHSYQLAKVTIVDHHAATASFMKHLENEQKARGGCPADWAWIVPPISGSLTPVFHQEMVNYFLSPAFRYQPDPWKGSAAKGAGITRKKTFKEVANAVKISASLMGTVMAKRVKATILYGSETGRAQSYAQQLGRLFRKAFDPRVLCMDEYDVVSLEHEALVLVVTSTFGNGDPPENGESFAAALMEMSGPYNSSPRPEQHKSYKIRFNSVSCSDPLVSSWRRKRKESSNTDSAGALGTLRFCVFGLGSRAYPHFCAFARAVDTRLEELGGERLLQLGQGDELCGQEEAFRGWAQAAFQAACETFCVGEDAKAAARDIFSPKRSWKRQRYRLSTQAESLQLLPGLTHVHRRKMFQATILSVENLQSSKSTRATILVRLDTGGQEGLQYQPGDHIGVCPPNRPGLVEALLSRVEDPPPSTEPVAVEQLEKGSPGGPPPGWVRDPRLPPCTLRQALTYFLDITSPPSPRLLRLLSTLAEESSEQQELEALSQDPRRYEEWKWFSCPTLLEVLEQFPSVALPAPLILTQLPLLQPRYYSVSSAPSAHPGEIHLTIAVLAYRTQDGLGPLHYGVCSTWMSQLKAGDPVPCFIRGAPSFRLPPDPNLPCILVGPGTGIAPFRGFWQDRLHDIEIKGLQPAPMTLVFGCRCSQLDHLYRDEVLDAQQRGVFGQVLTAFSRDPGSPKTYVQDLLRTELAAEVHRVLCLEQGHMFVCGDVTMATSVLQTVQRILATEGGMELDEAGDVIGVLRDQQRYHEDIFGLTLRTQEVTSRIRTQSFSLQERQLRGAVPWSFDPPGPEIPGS

B1: caveolin, endogenous, mouse cardiac microvascular endothelial cells (CMECs) (other, UniProt P49817 2-178, looked up)
chain: SGGKYVDSEGHLYTVPIREQGNIYKPNNKAMADEVTEKQVYDAHTKEIDLVNRDPKHLNDDVVKIDFEDVIAEPEGTHSFDGIWKASFTTFTVTKYWFYRLLSTIFGIPMALIWGIYFAILSFLHIWAVVPCIKSFLIEIQCISRVYSIYVHTFCDPLFEAIGKIFSNIRISTQKEI
notes: also called caveolin-1
B2: caveolin, endogenous, human umbilical vein endothelial cells (HUVECs) (other, UniProt Q03135 2-178, looked up)
chain: B1 chain with V35L, T36S, T104A, I105L, F154V, I162V, I169V, S172N, T173L
notes: also called caveolin-1
B3: endothelial nitric oxide synthase (eNOS), endogenous, human umbilical vein endothelial cells (HUVECs) (enzyme)
chain: GNLKSVAQEPGPPCGLGLGLGLGLCGKQGPATPAPEPSRAPASLLPPAPEHSPPSSPLTQPPEGPKFPRVKNWEVGSITYDTLSAQAQQDGPCTPRRCLGSLVFPRKLQGRPSPGPPAPEQLLSQARDFINQYYSSIKRSGSQAHEQRLQEVEAEVAATGTYQLRESELVFGAKQAWRNAPRCVGRIQWGKLQVFDARDCRSAQEMFTYICNHIKYATNRGNLRSAITVFPQRCPGRGDFRIWNSQLVRYAGYRQQDGSVRGDPANVEITELCIQHGWTPGNGRFDVLPLLLQAPDDPPELFLLPPELVLEVPLEHPTLEWFAALGLRWYALPAVSNMLLEIGGLEFPAAPFSGWYMSTEIGTRNLCDPHRYNILEDVAVCMDLDTRTTSSLWKDKAAVEINVAVLHSYQLAKVTIVDHHAATASFMKHLENEQKARGGCPADWAWIVPPISGSLTPVFHQEMVNYFLSPAFRYQPDPWKGSAAKGTGITRKKTFKEVANAVKISASLMGTVMAKRVKATILYGSETGRAQSYAQQLGRLFRKAFDPRVLCMDEYDVVSLEHETLVLVVTSTFGNGDPPENGESFAAALMEMSGPYNSSPRPEQHKSYKIRFNSISCSDPLVSSWRRKRKESSNTDSAGALGTLRFCVFGLGSRAYPHFCAFARAVDTRLEELGGERLLQLGQGDELCGQEEAFRGWAQAAFQAACETFCVGEDAKAAARDIFSPKRSWKRQRYRLSAQAEGLQLLPGLIHVHRRKMFQATIRSVENLQSSKSTRATILVRLDTGGQEGLQYQPGDHIGVCPPNRPGLVEALLSRVEDPPAPTEPVAVEQLEKGSPGGPPPGWVRDPRLPPCTLRQALTFFLDITSPPSPQLLRLLSTLAEEPREQQELEALSQDPRRYEEWKWFRCPTLLEVLEQFPSVALPAPLLLTQLPLLQPRYYSVSSAPSTHPGEIHLTVAVLAYRTQDGLGPLHYGVCSTWLSQLKPGDPVPCFIRGAPSFRLPPDPSLPCILVGPGTGIAPFRGFWQERLHDIESKGLQPTPMTLVFGCRCSQLDHLYRDEVQNAQQRGVFGRVLTAFSREPDNPKTYVQDILRTELAAEVHRVLCLERGHMFVCGDVTMATNVLQTVQRILATEGDMELDEAGDVIGVLRDQQRYHEDIFGLTLRTQEVTSRIRTQSFSLQERQLRGAVPWAFDPPGSDTNSP

Key:
[1] = biological target: T1, endothelial nitric oxide synthase …; assay: co-IP with eNOS or caveolin antibodies, immunoblot, CMEC lysates
[2] = biological target: B3; assay: caveolin IP, eNOS immunoblot, HUVEC lysates
Procedure: Following exposure to VEGF (50 ng/ml) for increasing periods of time (0, 0.5, 2, 5, and 30 min), EC were collected, lysed, and cell extracts used for immunoprecipitation as follows.

[3] = biological target: calmodulin (CaM), endogenous, human umbilical vein endothelial cells (HUVECs) (human, UniProt P0DP23 2-149); assay: eNOS IP, CaM immunoblot, VEGF-treated HUVEC lysates

B1
binding result [1]: binds

B2
binding result [2]: binds

B3
binding result [3]: binds
